These results are taken from IntAct's records for PubMed 12869544.

First the molecules themselves.
B1: Translocase of chloroplast 33, chloroplastic (Arabidopsis thaliana (Mouse-ear cress)), O23680 (parent)
chain: MGSLVREWVGFQQFPAATQEKLIEFFGKLKQKDMNSMTVLVLGKGGVGKSSTVNSLIGEQVVRVSPFQAEGLRPVMVSRTMGGFTINIIDTPGLVEAGYVNHQALELIKGFLVNRTIDVLLYVDRLDVYRVDELDKQVVIAITQTFGKEIWCKTLLVLTHAQFSPPDELSYETFSSKRSDSLLKTIRAGSKMRKQEFEDSAIAVVYAENSGRCSKNDKDEKALPNGEAWIPNLVKAITDVATNQRKAIHVDKKMVDGSYSDDKGKKLIPLIIGAQYLIVKMIQGAIRNDIKTSGKPL

This experiment covers variants of B1. The conditions noted are these: with tc159_arath TOC159, O81283.
Chain of tc159_arath TOC159, O81283 (O81283 whole entry): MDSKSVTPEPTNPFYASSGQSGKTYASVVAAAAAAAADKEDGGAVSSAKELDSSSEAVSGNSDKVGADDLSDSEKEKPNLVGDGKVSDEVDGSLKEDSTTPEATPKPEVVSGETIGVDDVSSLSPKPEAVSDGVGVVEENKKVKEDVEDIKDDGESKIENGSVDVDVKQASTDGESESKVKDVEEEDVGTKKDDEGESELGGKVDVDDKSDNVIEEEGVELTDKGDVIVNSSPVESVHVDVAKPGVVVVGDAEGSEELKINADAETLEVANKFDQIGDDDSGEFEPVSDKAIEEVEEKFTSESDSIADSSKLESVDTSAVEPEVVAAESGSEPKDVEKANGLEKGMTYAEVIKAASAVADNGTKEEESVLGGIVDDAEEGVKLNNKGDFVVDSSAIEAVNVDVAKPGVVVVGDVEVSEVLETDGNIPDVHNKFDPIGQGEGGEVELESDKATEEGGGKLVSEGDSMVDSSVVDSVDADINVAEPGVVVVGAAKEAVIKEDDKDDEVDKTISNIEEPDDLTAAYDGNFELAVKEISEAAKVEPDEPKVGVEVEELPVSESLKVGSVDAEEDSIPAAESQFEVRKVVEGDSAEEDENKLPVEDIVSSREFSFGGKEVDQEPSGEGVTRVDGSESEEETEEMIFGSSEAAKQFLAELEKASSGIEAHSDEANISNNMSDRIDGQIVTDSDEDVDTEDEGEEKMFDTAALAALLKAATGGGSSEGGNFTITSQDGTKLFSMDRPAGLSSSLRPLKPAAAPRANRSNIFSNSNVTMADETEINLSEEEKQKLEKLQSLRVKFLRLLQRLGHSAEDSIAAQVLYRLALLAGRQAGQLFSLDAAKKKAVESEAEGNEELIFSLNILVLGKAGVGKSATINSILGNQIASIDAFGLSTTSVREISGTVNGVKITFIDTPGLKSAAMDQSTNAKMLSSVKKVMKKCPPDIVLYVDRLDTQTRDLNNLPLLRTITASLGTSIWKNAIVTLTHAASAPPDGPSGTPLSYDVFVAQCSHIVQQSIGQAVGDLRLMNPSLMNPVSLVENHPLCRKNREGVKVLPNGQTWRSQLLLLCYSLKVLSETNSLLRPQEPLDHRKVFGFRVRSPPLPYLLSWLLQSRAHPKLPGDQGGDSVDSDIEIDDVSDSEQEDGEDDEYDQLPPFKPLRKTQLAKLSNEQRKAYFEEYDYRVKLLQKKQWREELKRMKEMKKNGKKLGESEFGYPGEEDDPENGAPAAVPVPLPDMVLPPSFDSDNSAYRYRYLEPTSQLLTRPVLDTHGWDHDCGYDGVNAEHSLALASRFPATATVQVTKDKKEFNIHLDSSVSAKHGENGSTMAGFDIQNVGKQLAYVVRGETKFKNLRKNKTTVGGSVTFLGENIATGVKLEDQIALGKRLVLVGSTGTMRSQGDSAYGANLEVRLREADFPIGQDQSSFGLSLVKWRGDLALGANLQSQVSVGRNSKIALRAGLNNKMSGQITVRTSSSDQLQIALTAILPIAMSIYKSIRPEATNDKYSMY
For R130A, the “effect of a mutation on the interaction” value is “decreasing interaction”.
